Results reported in the supplement of paper PMC10065799, “High-throughput profiling of sequence recognition by tyrosine kinases and SH2 domains using bacterial peptide display” (eLife, 2023).

Assays:
[1] = target: Grb2 SH2 (UniProt P62993); assay: SH2 binding enrichment of the phosphorylated peptide, bacterial display (enrichment ratio); higher = better substrate or ligand; peptides without Tyr show the background
[2] = target: c-Src SH2; assay: as above
[3] = target: SHP2-C SH2; assay: as above
[4] = target: EPHB2 (UniProt P29323); assay: phosphorylation enrichment, bacterial display (enrichment ratio); higher = better substrate or ligand; peptides without Tyr show the background
[5] = target: EPHB1 (UniProt P54762); assay: as above
[6] = system: c-Abl (mouse); assay: as above
[7] = target: Fes (UniProt P07332); assay: as above
[8] = target: FGFR1 (UniProt P11362); assay: as above
[9] = target: Jak2 (UniProt O60674); assay: as above
[10] = target: MERTK (UniProt Q12866); assay: as above
[11] = system: Fer (mouse); assay: as above
[12] = target: Fyn (UniProt P06241); assay: as above
[13] = system: c-Src; assay: as above
[14] = system: AncSZ; assay: as above
[15] = target: Hck (UniProt P08631); assay: as above
[16] = target: FGFR3 (UniProt P22607); assay: as above
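Throughout, for SH2 binding enrichment of the phosphorylated peptide, bacterial display: peptide library displayed on the E. coli surface as eCPX fusions, selected cells deep-sequenced, score is each peptide's frequency after selection divided by its frequency in the input.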
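Throughout, for phosphorylation enrichment, bacterial display: 11-residue human phosphosite peptides and single-mutation variants displayed on the E. coli surface, counted by deep sequencing, each peptide's frequency after selection divided by its frequency in the unselected input library; frequency after pTyr selection over input frequency; kinase dosed for 20-30% of maximal phosphorylation in three min.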

Chain of Grb2 SH2 (P62993 whole entry, looked up): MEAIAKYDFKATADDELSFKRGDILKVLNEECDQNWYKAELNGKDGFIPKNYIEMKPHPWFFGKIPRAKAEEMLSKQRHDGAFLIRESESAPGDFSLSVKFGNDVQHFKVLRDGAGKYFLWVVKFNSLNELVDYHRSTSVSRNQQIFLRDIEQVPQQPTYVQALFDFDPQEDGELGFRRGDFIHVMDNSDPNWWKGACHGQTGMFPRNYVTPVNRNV
Chain of Fes (P07332 whole entry, looked up): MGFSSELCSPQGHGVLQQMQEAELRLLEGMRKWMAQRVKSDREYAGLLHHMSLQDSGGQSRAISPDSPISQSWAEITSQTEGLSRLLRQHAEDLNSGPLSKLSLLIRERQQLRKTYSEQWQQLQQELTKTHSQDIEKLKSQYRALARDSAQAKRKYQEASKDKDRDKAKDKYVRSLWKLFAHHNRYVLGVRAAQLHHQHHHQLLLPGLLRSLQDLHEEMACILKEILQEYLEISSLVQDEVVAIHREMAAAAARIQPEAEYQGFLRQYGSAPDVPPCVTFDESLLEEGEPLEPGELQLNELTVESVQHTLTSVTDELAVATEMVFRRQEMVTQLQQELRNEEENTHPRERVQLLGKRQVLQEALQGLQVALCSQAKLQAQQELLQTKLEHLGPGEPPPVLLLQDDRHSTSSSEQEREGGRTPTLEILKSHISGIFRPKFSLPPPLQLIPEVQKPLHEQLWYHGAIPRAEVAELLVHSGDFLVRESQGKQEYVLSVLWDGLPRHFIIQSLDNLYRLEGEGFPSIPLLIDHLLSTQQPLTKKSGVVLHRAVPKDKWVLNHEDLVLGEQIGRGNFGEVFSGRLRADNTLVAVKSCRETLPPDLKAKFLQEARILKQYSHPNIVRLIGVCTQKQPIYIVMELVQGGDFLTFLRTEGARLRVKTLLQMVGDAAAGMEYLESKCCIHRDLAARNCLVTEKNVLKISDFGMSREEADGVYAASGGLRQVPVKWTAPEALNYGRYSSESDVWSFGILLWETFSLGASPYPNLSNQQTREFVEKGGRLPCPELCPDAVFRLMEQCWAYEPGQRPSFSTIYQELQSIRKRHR
Chain of FGFR3 (P22607 whole entry, looked up, the tested form may be a part): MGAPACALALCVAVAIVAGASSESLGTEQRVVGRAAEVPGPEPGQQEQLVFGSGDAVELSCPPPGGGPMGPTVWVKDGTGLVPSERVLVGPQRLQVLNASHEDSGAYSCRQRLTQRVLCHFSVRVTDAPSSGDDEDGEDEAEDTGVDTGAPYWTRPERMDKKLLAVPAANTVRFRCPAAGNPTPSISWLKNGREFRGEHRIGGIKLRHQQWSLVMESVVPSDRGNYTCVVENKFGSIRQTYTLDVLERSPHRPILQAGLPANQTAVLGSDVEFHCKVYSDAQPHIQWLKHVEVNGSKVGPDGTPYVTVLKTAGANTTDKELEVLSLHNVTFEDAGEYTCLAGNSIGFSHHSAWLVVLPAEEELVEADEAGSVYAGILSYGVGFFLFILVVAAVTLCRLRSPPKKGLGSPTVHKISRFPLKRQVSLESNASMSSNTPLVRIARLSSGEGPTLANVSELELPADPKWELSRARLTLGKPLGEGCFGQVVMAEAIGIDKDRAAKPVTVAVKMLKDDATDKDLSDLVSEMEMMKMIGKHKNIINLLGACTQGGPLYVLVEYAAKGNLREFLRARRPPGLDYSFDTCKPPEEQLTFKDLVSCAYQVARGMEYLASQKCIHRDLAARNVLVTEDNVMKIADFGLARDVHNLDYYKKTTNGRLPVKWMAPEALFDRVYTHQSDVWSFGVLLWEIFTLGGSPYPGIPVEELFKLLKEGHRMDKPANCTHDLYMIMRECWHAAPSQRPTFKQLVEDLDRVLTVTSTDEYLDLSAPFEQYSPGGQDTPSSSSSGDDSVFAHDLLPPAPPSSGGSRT
Chain of Jak2 (O60674 whole entry, looked up): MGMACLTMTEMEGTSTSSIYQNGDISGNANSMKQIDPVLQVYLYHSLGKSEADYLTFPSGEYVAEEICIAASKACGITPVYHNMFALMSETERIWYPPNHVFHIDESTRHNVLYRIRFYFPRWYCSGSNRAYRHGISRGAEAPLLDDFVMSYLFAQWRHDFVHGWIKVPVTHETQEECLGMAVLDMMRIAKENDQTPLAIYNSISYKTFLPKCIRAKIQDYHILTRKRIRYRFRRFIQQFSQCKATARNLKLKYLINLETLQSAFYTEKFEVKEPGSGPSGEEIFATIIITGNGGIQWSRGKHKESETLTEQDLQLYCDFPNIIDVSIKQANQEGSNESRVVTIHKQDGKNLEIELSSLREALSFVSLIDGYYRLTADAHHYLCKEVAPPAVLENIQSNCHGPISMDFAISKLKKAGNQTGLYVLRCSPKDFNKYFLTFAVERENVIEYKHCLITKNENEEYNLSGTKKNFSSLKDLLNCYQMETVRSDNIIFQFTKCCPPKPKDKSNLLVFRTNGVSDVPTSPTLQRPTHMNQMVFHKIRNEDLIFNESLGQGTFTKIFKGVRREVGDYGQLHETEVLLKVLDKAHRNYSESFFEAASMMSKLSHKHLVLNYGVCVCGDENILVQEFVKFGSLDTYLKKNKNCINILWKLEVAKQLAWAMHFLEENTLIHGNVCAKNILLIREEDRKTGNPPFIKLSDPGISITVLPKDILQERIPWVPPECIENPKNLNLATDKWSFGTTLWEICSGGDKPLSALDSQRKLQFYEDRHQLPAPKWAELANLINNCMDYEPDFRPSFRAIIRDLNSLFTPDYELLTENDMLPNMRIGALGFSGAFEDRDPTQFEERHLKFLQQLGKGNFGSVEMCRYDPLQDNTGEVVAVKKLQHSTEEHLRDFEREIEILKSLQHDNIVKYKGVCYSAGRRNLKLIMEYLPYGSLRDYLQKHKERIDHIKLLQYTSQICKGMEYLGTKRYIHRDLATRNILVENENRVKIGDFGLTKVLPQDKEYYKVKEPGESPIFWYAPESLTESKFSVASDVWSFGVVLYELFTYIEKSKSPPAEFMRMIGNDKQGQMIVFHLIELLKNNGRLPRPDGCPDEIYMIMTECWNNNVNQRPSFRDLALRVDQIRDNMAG
Chain of EPHB2 (P29323 whole entry, looked up): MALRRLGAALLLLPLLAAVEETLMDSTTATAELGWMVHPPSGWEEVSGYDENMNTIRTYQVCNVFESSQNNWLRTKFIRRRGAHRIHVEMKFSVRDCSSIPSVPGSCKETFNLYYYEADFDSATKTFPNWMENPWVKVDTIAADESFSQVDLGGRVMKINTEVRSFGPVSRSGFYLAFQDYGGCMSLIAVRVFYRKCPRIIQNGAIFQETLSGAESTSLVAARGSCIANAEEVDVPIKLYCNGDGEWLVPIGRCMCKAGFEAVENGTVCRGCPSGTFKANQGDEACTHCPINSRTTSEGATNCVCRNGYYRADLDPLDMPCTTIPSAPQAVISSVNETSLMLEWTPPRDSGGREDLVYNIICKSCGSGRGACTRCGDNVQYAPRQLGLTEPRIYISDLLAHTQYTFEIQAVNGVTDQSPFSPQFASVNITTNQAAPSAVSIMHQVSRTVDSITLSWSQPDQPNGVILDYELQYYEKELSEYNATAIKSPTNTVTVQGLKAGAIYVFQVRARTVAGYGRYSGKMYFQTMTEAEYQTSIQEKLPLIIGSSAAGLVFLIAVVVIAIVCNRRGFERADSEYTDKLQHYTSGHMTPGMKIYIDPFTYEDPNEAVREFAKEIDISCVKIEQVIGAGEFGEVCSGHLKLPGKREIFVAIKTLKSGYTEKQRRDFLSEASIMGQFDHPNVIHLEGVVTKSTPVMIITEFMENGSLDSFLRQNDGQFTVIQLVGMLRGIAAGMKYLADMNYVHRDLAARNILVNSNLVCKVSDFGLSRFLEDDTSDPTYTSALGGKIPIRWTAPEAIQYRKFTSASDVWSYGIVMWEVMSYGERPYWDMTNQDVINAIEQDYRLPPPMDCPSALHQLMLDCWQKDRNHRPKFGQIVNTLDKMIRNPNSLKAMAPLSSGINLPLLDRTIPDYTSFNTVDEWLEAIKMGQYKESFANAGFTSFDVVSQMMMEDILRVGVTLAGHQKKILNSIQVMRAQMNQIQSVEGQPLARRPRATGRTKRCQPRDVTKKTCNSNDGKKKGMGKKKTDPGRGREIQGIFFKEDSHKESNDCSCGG
Chain of FGFR1 (P11362 whole entry, looked up): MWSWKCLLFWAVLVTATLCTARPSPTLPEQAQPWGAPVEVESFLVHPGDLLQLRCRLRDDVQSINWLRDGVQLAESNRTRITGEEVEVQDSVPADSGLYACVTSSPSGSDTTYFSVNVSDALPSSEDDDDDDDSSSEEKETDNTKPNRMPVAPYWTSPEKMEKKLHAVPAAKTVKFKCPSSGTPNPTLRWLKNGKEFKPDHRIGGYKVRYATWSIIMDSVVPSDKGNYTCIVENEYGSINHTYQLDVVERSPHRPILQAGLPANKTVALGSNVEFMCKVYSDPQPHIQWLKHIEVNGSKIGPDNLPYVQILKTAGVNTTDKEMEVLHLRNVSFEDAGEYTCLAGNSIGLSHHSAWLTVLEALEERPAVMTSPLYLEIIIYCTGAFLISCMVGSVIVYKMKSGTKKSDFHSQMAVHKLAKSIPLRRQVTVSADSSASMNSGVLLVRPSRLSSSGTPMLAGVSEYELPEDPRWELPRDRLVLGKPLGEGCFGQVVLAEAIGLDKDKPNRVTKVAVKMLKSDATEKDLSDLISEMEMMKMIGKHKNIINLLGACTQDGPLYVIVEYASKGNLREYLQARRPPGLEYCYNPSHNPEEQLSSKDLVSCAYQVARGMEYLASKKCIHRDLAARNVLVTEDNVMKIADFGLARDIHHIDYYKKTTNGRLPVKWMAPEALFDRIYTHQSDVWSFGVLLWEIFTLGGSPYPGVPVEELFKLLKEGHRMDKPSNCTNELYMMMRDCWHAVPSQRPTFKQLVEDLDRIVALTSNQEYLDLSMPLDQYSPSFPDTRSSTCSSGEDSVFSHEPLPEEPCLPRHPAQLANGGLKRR

Sequence	SH2 binding enrichment [1]	SH2 binding enrichment [2]	SH2 binding enrichment [3]	phosphorylation enrichment [4]	phosphorylation enrichment [5]	phosphorylation enrichment [6]	phosphorylation enrichment [7]	phosphorylation enrichment [8]	phosphorylation enrichment [9]	phosphorylation enrichment [10]	phosphorylation enrichment [11]	phosphorylation enrichment [12]	phosphorylation enrichment [13]	phosphorylation enrichment [14]	phosphorylation enrichment [15]	phosphorylation enrichment [16]
RLLVVFPWTQR [HBB_Y36_Y36F]	1.94	1.23	1.95	0.766	0.574	1.11	1.73	0.67	1.59	0.784	0.608	0.545	0.584	2.13	0.829	1.08
HLLRIYYDITD [MMP27_Y307_W304L]	0.711	1.55	0.704	1.99	1.93	1.63	2.15	2.49	1.91	0.88	1.23	1.07	1.66	1.46	0.891	2.33
CVGGFYGGCNE [CTSC_Y352_Y347C]	1.01	0.908	0.748	0.625	0.548	0.471	0.854	0.439	0.636	0.585	0.566	0.678	1.88	0.81	0.838	0.653
ALWFIYLHTRS [ENG_Y614_S615L_YF]	0.875	0.564	0.882	0.583	0.585	0.979	1.37	0.409	1.13	0.422	0.485	0.433	0.411	1.2	0.428	0.778
MHDSNYVSKGS [PDGFRA_Y849]	0.739	0.404	0.546	0.416	0.388	0.508	0.73	0.501	0.55	0.451	0.393	0.535	0.482	0.648	0.554	0.459
ASTHVYQIMNH [ITK_Y588]	0.73	14.3	0.833	0.487	0.991	0.623	0.722	0.508	0.55	1.61	1.34	1.39	2.58	0.703	2	0.423
SHNELYYEEAE [VANGL1_Y344]	1.05	0.799	0.931	0.733	0.736	0.896	1.27	1.05	1.37	0.58	1.03	0.544	0.578	1.5	0.626	1.15
DGDTRYSTFSE [TKTL1_Y318]	0.978	2.62	1.82	0.487	0.609	0.764	0.879	0.41	0.849	0.451	0.481	0.467	0.5	0.837	0.559	0.669
NNHGNYIVLLG [ETFDH_Y172_R175L]	0.983	0.587	1.14	3.86	7.55	0.644	0.902	2.81	0.833	1.66	0.363	0.458	0.522	0.979	0.433	1.71
CTTIHNNYMCN [TP53_Y234_Y234N]	0.987	0.914	1.27	0.456	0.44	0.63	0.725	0.423	0.61	0.379	0.383	0.432	0.385	0.712	0.423	0.452
DKMEAYNIDET [TEKT4_Y210]	0.82	0.528	0.685	0.618	0.604	0.755	1.29	0.56	1.04	0.459	0.584	0.568	0.492	1.32	0.583	0.83
TVEDHDYEGGI [TKT_Y563_Y563D]	1.15	0.651	1.26	0.583	0.543	0.654	1.17	0.481	0.963	0.49	0.559	0.478	0.526	1.08	0.5	0.727
SMGMKYLEEKN [ZAP70_Y451]	0.962	0.638	0.86	0.463	0.518	0.644	0.879	0.493	0.727	0.383	0.454	0.7	0.434	0.717	0.398	0.506
KKCTRYIDCAL [ASPA_Y64_D68A]	0.836	0.709	0.806	0.394	0.374	0.55	0.755	0.394	0.595	0.338	0.418	0.336	0.371	0.684	0.356	0.568
RVKPIYFHTQG [AR_Y916_K911R]	2.11	1.53	1.67	0.804	0.644	1.04	1.69	0.706	1.6	0.763	0.764	0.642	0.952	1.16	0.622	0.765
QQLDEYQELLD [LMNA_Y359]	0.798	0.452	0.55	0.757	0.776	1.01	1.57	0.615	1.3	0.6	0.598	0.669	0.726	1.63	0.684	1.18
AKNKDYMSIIR [GNE_Y197]	0.9	0.774	0.879	0.553	0.851	0.676	0.677	0.432	0.706	0.468	0.473	0.409	0.452	0.585	0.483	0.585

Sequence	SH2 binding enrichment [1]	SH2 binding enrichment [2]	SH2 binding enrichment [3]	phosphorylation enrichment [4]	phosphorylation enrichment [5]	phosphorylation enrichment [6]	phosphorylation enrichment [7]	phosphorylation enrichment [8]	phosphorylation enrichment [9]	phosphorylation enrichment [10]	phosphorylation enrichment [11]	phosphorylation enrichment [12]	phosphorylation enrichment [13]	phosphorylation enrichment [14]	phosphorylation enrichment [15]	phosphorylation enrichment [16]
LNPLIYSLRNK [OR5R1_Y290]	0.86	0.727	1.66	1.29	2.03	2.28	2.46	1.94	1.13	1.5	1.21	6.76	6.55	1.13	8.23	1.44
ASFSLYEPAKM [MKI67_Y340_P338S]	1	0.613	0.793	5.28	6.24	0.825	1.28	0.518	0.954	0.769	9.33	1.27	1.25	1.27	3.48	0.563
AEQDCYHGAIP [FER_Y461_W460C]	0.96	0.65	0.827	0.655	0.648	0.706	1.01	0.523	0.742	0.453	0.456	0.472	0.599	0.864	0.499	0.599
QKMLDYLKEKK [RYR2_Y3780]	1.09	0.498	0.778	0.345	0.401	0.533	1.1	0.553	0.579	0.398	0.442	0.542	0.513	0.9	0.491	0.673
DLDTDYGSGYP [RNASEH2A_Y206]	0.816	0.439	0.565	0.648	0.691	1.21	1.47	0.689	1.14	0.554	0.682	0.852	0.652	1.36	0.589	0.879
AAVDNYCRHNF [HLA-DRB1_Y107_T106N_YF]	0.877	0.583	0.772	0.234	0.753	0.484	0.53	0.442	0.928	0.326	0.471	0.587	0.349	0.41	0.203	1.33
TFGQVYKGPHV [TNIK_Y40_R43P_YF]	0.69	0.413	0.531	0.454	0.403	0.537	0.751	0.47	0.608	0.381	0.466	0.493	0.433	0.59	0.448	0.426
FSQETYFRVSN [ABCD1_Y180_Q178E_YF]	0.481	0.466	0.544	0.706	1.08	0.661	1.1	1.64	3	0.74	0.45	0.592	1.51	1	0.868	1.23
TVLWQYTGTRP [UGT1A1_Y337_R336Q]	1.01	0.455	0.793	0.43	0.539	0.436	1.04	0.366	1.01	0.345	0.419	0.398	0.22	0.903	0.499	0.645
EVQKDYEHLFK [PAM16_Y77_N76D]	0.805	0.592	0.662	0.525	0.511	0.62	0.804	0.498	0.71	0.462	0.421	0.478	0.491	0.885	0.514	0.582
DENWFYTRAAS [RPS19_Y54]	0.821	0.661	0.816	0.517	0.547	1.34	1.11	0.402	1.11	0.401	0.45	0.454	0.418	1.13	0.382	0.673
IRSGIYFKPES [L2HGDH_Y102_H98R_YF]	0.776	0.642	1.13	0.687	0.63	2.88	0.95	0.542	1.19	4.3	0.467	0.768	0.673	0.913	0.786	0.625
HPWPRYTTRAP [FNDC1_Y1281_Q1280R]	0.684	0.434	0.643	0.713	0.509	0.646	0.907	0.515	0.518	0.605	0.449	0.796	0.654	0.802	0.849	0.619
NIKKEYAKMVQ [PMS2_Y181]	0.824	0.623	0.791	0.413	0.345	0.422	0.615	0.358	0.436	0.392	0.294	0.335	0.312	0.549	0.451	0.39
QEALEYFMKQI [PIK3CA_Y1038_M1043I]	0.704	0.455	0.926	0.547	0.845	1.28	1.43	0.616	1.53	0.449	0.599	0.545	0.714	1.68	0.631	0.744
APGDAYGDAGY [SYP_Y250]	0.815	0.464	0.616	0.662	0.541	0.616	0.871	0.494	0.765	0.442	0.512	0.413	0.405	0.891	0.463	0.615
